Measured values taken from the supplement of paper PMC12764529.

Assay: folding stability dG unfold (combined trypsin and chymotrypsin); higher = more stable
Protocol: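 Folding stability of de novo designed mini-proteins (<80 aa, no Cys; designed by TrROS, TrMRF, ProteinMPNN and the joint model) was measured by cDNA display proteolysis with trypsin and chymotrypsin. Each protease was used at 11 concentrations in a threefold dilution series plus a no-protease condition. K50 was inferred by Bayesian fitting of sequencing counts, and dG unfold was derived against a sequence-predicted unfolded-state K50 (Tsuboyama et al. method). Sequences shown include variable-length N-terminal GS-type padding (SAGGSAGG...) inside a display construct carrying a PA tag. Rows were kept only if the AF2 dimer inter-PAE was >15, to exclude likely homo-oligomers.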

Row | Sequence | folding stability dG unfold [kcal/mol]
1 | SMTIEELLKKHPNLSAEELAKLIADELKKKLPPGAKITVTVEEKDGKLVLKVEVEVNGKKITIELEIELKSA [r9_805_TrROS_Hall] | > 6
2 | SAGGSAGGSPKWKVEPIGNRIRIMIPDGPYYTARLPDDVKLDLDEGKFKFPPGLEVEPVPLKESAGGSAGGS [r20_158_TrROS] | < -1
3 | SAGGSAGGSAGGWLKGMPFKITKITDVRRNPENGRRWLTIRMPNPNRPVTVPLDDLPPGLSAGGSAGGSAGG [r7_304_TrROS] | < -1
4 | SAGGSAGGSLKPGAPVMYRIRNPENGRKFPFQIKIKEDGGIDIEYPSNGKTMTIPPDNIEPVPSAGGSAGGS [r12_726_TrROS] | < -1
5 | SGINTEYTVTSVGPAGTPVTTELKTKIGNKEYSLTRTYQDPSGSVRLVNWKITSSPSGSSTISETVSPLPSA [r9_255_JUSTAS] | < -1
6 | SAGGSAMPVKIELVERKRDPNSDTYYATVKITNPNKTITLPIKLDVPEEEAEKEVKEKAEEIAKKGSAGGSA [r15_979_JUSTAS] | < -1
7 | SAGGDNRQEREFHIPDPDGEDINITMEYNPSNGRTRVKVQPPEDGKPIKEIPADEMPPEAQDILKKISAGGS [r8_32_TrROS] | < -1
8 | SAGGSAGGNWETIPIKGDPKQMVDEAREENPRNVRIYNPNNGKKHEFPPGLPLDDFPGMYVQRRSAGGSAGG [r6_858_TrROS] | < -1
9 | SAGGSAGGSAGPWKVITHTIDIPPGADELPIRLPGNGIEAKIMSVDPGNGTITVEIYVPDSAGGSAGGSAGG [r17_198_TrROS] | < -1
10 | SAGGMSPNQKVTIEIDNWHPGPGGNYFNVRIRNPGNGKPREINGPGDNPEDMKKEIEELVKAGPIEIYSAGG [r13_286_TrROS] | < -1
11 | SAGGSAGGSAGGSTVLRLERVPGTGLLVERLVTPSGSGYSVEVTVRPVGEEEREALPLGSAGGSAGGSAGGS [r10_291_JUSTAS] | < -1
12 | SAGGTIKDLLRELPGFDSVEVDEDSGVIYVRNPDRYYKIEIPVQKQPDDDGKDRPITPVKIEPYPPNSAGGS [r16_65_TrROS] | < -1
13 | SAGGKELVEKLLAEGGVKPVKIETKEGKPKIEVLAPKPELGKKLVEKLKKDPRIEEVNIKPYKPEELSAGGS [r16_671_TrMRF] | < -1
14 | SAGGSAGGSAGGDKKAIEELVKKLPPDTKLAPVKLPDGKEKLIFVERREDGSRKALVLDSAGGSAGGSAGGS [r10_1017_TrMRF] | < -1
15 | SAGGSAGGSAGVKEIADKFPGIKSIDVQRNKNGEQTVSIEHRSKGGPVKHTFPAEDLEPLSAGGSAGGSAGG [r17_116_TrROS] | < -1
16 | SAGGIKELADEGAEIKDVTWPVRFPDGNPMRITEIKPTDGGLDIRFEPPNDGREQEHPIPPDNIEPLPSAGG [r13_340_TrROS] | < -1
17 | SAGGSAGGSAGVPPDAPEVVVTLTLRPPGPDTTVTLTVPAAELPPEAIPPGTVVERAVSPGASAGGSAGGSA [r18_21_JUSTAS] | < -1
18 | SAGGSAGGRIRVPDGREIPPGQSKEEAKDQVKDWFKERNPQNGNKKVKIEAEKWDGMPWIRVKPSAGGSAGG [r6_558_TrROS] | < -1
19 | SAGGSAGGSVIRIPPDDLRANLKPGMMVMIKDPGKPRMFPWDDLDKLPPNDPVEIEIIPMEPGSAGGSAGGS [r12_501_TrROS] | < -1

Row | Sequence | folding stability dG unfold [kcal/mol]
20 | SAGGSAGGSMNEVSEEEAIAEAVAKHAPDEPVTYELKDNKKIVVNVNGADPANVSIEVIPIKNSAGGSAGGS [r12_648_JUSTAS] | < -1
21 | SAGGSAGGSAGMKLEELAKEAEERYREEGGDAVIDLVVEREDDKKEPFILEIGKKGLKIESAGGSAGGSAGG [r11_954_TrMRF] | < -1
22 | SAGGSAGGSSPKRTIEITLPKDASEEELQATANAIAKELGAPNVQVEVSPVPEDYRLVKVIVESAGGSAGGS [r20_208_JUSTAS] | < -1
23 | SAGGSAPENDPWVWRVKIPYKKKNPNGEPERREREITFPFKSPEDAENFRDALREDGAEIEPVEPMSAGGSA [r15_117_TrROS] | < -1
24 | SAGGSAGGSAGGGSPAEQLREMAKQIPPVEIRFPGPGKERTIPDPDNFQEKGWKITEIEFSAGGSAGGSAGG [r7_504_TrROS] | < -1
25 | SAGGSARKITIDVQPHPNGEFPINVKIRGPNGEPKKERPFNFDSPQAAKNKLKDFADKNGYEVEIWSAGGSA [r15_242_TrROS] | < -1
26 | SAGGEISIMFKSPEGVKEIAEELEENGLEVDVSPVPGYWMVRIQPKPKPPPTPEAAEKAQRDPDQANKSAGG [r13_8_TrROS] | < -1
27 | SAGGSAGGSAGGPEWKEVPFTLRMPDGEPMDAKVYIDPEGPLEIENDDKWHTFPADQLKSAGGSAGGSAGGS [r10_649_TrROS] | < -1
28 | SAGGSAGGSAGMPVIEEKLVFYTGDGTPREKKVKVTTTPLPNGTTKKTYDIPKDEIKKLPSAGGSAGGSAGG [r11_816_JUSTAS] | < -1
29 | SAGGSAGGSAGGDPNIEKTYKIKVAKGDKNGKIIKVIEKEIKVKTPEEAEKFAKELAKSSAGGSAGGSAGGS [r10_57_TrMRF] | < -1
30 | SAGGSAGGSAGGSSKLVTITRGNSKTLLTLKPDEPVLLPGSDSSVSVNEGSAVNISGNKLSAGGSAGGSAGG [r7_853_JUSTAS] | < -1
31 | SAGGSAGGSAADLAKLEKVEVEEVPTDPNAEYRVTAELPTPGEPVEFTRRRLPDGSWEYSGSAGGSAGGSAG [r3_234_JUSTAS] | < -1
32 | SAGGSAGGSAGGNPGQEVTYQIKIPIRDKNGEPDWKIDIPVTMDTPQDADRFAKEIAKRSAGGSAGGSAGGS [r10_57_TrROS] | < -1
33 | SAGGSAGGSAGGMVLELEGLGEEEIKALVREIPEDEPVTFVIKSKNNKTSVIPSEEILESAGGSAGGSAGGS [r10_732_JUSTAS] | < -1
34 | SAGGSAGGSAGGMEVREVVEETPETLVVRTVRFYPDGSVEVLEEERIPLPPPELTPRNLLSAGGSAGGSAGG [r11_843_JUSTAS] | < -1
35 | SAGGPGPPPLEPVVVPVDDGVAVFTRSPDGSLHVEIGPRSGPVVASATAPLPEDSELTVDAVVLPEELSAGG [r13_584_TrMRF] | < -1
36 | SAGGSAGGSAGGMTAVVTEPRLENGKEYLVRTVREFPSAEPRPGAVLEEEVVPLDVPLESAGGSAGGSAGGS [r10_730_JUSTAS] | < -1
37 | SAGMVIPATSEEEAEAFAKELGPETGYEVEIEKVPADEPVEDVDPNDILVVLPESGTVYRIHVRRPDEESAG [r5_173_TrMRF] | < -1
38 | SAGGSAGGSHWAEELAKEAGLKVKIDDMMKNPDGYPYVIVKIKPPDGGKRTVMFDGNQPRIYPSAGGSAGGS [r12_279_TrROS] | < -1

Row | Sequence | folding stability dG unfold [kcal/mol]
39 | SAGGSAGGIKIDPNIKEITWHQNPNGMFYHTIKVDEGKKVAPVRFPPDQPPEQMWDNAKEALKESAGGSAGG [r6_436_TrROS] | < -1
40 | SAGGSAGGSAGGMKPYRIGNGAWLYVNPDDSVRIYNPGNGQKRTIPIGKPQPIRLPKNAISAGGSAGGSAGG [r7_299_TrROS] | < -1
41 | SAGGSAGGSAGSEELAKEIEDIAQEQGFPIKDVEIERNPPNGYYSIEVRHKGNPVTIPIPSAGGSAGGSAGG [r11_279_TrROS] | < -1
42 | SAGGSAGGSAGNVITFPDGYYIRVTGPGPREIPIPPENAEDFVDEISKLPGIQDIEIQPRSAGGSAGGSAGG [r11_587_TrROS] | < -1
43 | SAGGSAGGSGEFLSDLPPDWEVSTEPLPSDTVRYTVTAPTGPVSAVSLPVGDREVRTSATPPVSAGGSAGGS [r20_50_JUSTAS] | < -1
44 | SAGGDKIQEKLQKEGGFRPTNTEVNGGKPKIHIHWPNPERRKKLKEKLKKDPGIEEVQIQPMDPEDMSAGGS [r16_671_TrROS] | < -1
45 | SAGSPADVVPLEIPFVTEDGSRVRATLLYDPATGEVTVPIETEDPALGRRAAAFARRLAEELGAPDVRPSAG [r5_99_TrMRF] | < -1
46 | SAGGSAGGGMMKTITITESVVLEVRPVTSENGRVYPEVLSEVLKTTTVPFPPGNEEEIEKAIKESAGGSAGG [r6_738_JUSTAS] | < -1
47 | SAGGSAGGSAGLEIPPELTVTSTFTVPPSGRRVLELLNPATNEPVVLDLETGEIHPSEALSAGGSAGGSAGG [r11_268_JUSTAS] | < -1
48 | SAGGDWLDNFPPGWKIKLERPNGKPKTYTIPPNSSPDDLKKLKLPNGYKLKIDEVTPNGQMTFRLPPSAGGS [r16_103_TrROS] | < -1
49 | SAGGSAGGSFEVHYDPEPNNLTIRMEFPGGRRTYRIPSADDVKDWFEDMGMPFKPMEITKIEPSAGGSAGGS [r12_834_TrROS] | < -1
50 | SAGDRKVIHINGFEPEQFRKIIREAKDKGPPGDRIWIPSPEYVDELKELDPNLPVEVHNMDNGEWQEIESAG [r5_391_TrROS] | < -1
51 | SAGGSAGGSKIKIEDIHPNPNGMFMFRIRPPDNGKPREVPFDSPEDAERFADELEEDGYKIEISAGGSAGGS [r20_177_TrROS] | < -1
52 | SAGGSAGGSAGGKIKLAAANPKVAKELAKILEKELEEKGYKLKPNLKIEVLPAKPDPKLASAGGSAGGSAGG [r7_965_TrMRF] | < -1
53 | SAGGSAGGSAGGIRLSPEFRELLKDAPPSPGQKREINFPNGYQITYTVKGNKIDDIEWTPSAGGSAGGSAGG [r7_611_TrROS] | < -1
54 | SGSMVVVPESDLEAAIATARALVAAGEDTLLFFSPEAREAVQRAVPEVRVEPVPGVPPTPPRPESVARLRSA [r9_639_JUSTAS] | < -1
55 | SAGGSAGGSSPPDATIPREEAEKYVKEKVREENLKAGKPLKKVKKLIVKEDPNSDNVKVTVIESAGGSAGGS [r12_583_JUSTAS] | < -1
56 | SAGGSAGGSAGGSMTPITTTEEVDPDFKEETIKVKNFPATTTPIPEENKRTTTIPTSLFSAGGSAGGSAGGS [r4_430_JUSTAS] | < -1
57 | GEVLVAKIELKVKKKLPEKPEEVEEKLELEFVAPIDNPEALEKAEEIAKKLAEEIGATEVKIKVEPYILPES [r1_346_TrMRF] | < -1
